Numbering of substitutions follows the chain as printed. Each block holds one binder with its values, some of them ahead of it.
Target: T1, human RANK-L (human, UniProt O14788 140-317)
T1 chain: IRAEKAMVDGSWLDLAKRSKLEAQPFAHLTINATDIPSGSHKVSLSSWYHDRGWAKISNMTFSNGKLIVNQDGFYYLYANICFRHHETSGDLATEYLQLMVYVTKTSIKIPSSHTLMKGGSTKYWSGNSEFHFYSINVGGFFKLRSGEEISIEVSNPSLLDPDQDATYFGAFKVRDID
Experiment: AlphaScreen competition

- IC50: 0.167 nM
B1: RANKL13hum5 (VHH)
VHH: EVQLVESGGGLVQPGGSLRLSCAASGFTFSSYPMGWFRQAPGKGREFVSSITGSGGSTYYADSVKGRFTISRDNAKNTLYLQMNSLRPEDTAVYYCAAYIRPDTYLSRDYRKYDYWGQGTLVTVSS

- IC50: 0.156 nM
B2: RANKL13hum5_D62E (VHH)
VHH: B1 VHH with D62E

- IC50: 0.228 nM
B3: RANKL13 (VHH)
VHH: B1 VHH with P14A, F27R, S30R, G44E, S49A, L79V, Y95S, L121Q

From patent US20110002929A1 (published 2011)
